Reference: article PMC10966353

Target: A/Singapore/INFIMH-16-0019/2016 hemagglutinin with a C-terminal sfGFP, GCN4 trimerization domain and Strep-tag (influenza A virus A/Singapore/INFIMH-16-0019/2016)
Assay: negative stain electron microscopy

Q: How did the stoichiometry N turn out when “A/Singapore/INFIMH-16-0019/2016 hemagglutinin with a C-terminal sfGFP, GCN4 trimerization domain and Strep-tag” was run?
A: 3
